We go through 75 sequences from the supplement of paper PMC7877785.

± gives the uncertainty stated by the source.

The nature of the series: self-splicing fitness, log relative to wild type (ln ratio); higher = more splicing; Tetrahymena group I intron in knt gene, E. coli kanamycin selection, DiMSum; sequences stand for … in CUCUCU…GGAGGGAAAAGUUAUCAGGCAUGCACCUGGUAGCUAGUCUUUAAACCAAUAGAUUGCAUCGGUUUAAAAGGCAAGACCGUCAAAUUGCGGGAAAGGGGUCAACAGCCGUUCAGUACCAAGUCUCAGGGGAAACUUUGAGAUGGCCUUGCAAAGGGUAUGGUAAUAAGCUGACGGACAUGGUCCUAACCACGCAGCCAAGUCCUAAGUCAACAGAUCUUCUGUUGAUAUGGAUGCAGUUCACAGACUAAAUGUCGGUCGGGGAAGAUGUAUUCUUCUCAUAAGAUAUAGUCGGACCUCUCCUUAAUGGGAGCUAGCGGAUGAAGUGAUGCAACACUGGAGCCGCUGGGAACUAAUUUGUAUGCGAAAGUAUAUUGAUUAGUUUUGGAGUACUCGUGGUCG
The essentials: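 Six replicate transformations of E. coli BL21(DE3) with a pET-22b(+) library were grown overnight at 37°C or 30°C. The library randomised all eight P1ex-region intron nucleotides, the intron lying in the knt kanamycin-resistance gene, and plates were LB agar with or without 25 μg/mL kanamycin plus 100 μg/mL carbenicillin, 50 μM IPTG and 0.2% rhamnose. Pooled colonies were amplicon-sequenced on an Illumina HiSeq 2500, and fitness is the DiMSum error-weighted combination of wild-type-normalised replicate fold changes, kanamycin versus none.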

Turning to ACAGAGCAAUAUUACGAUGA, the “self-splicing fitness (ln)” value is -1.49 ± 0.17 (30 °C) and -1.15 ± 0.16 (37 °C).
As for ACAGAGCAAUAUUACGCGCG, the “self-splicing fitness (ln)” value is -2.69 ± 0.098 (30 °C) and -1.47 ± 0.1 (37 °C).
Turning to ACAGAGCAAUAUUACGCUGG, the “self-splicing fitness (ln)” value was -3.47 ± 0.14 (30 °C) and -2.53 ± 0.16 (37 °C).
In the same order, the values of ACAGAGCAAUAUUACGGAAA are -3.38 ± 0.36 and -2.81 ± 0.38.
For the sequence ACAGAGCAAUAUUACGGAGU, the “self-splicing fitness (ln)” value (30 °C) is -3.05 ± 0.23 and the “self-splicing fitness (ln)” value (37 °C) was -3.24 ± 0.35.
ACAGAGCAAUAUUACGGAUC: the “self-splicing fitness (ln)” value runs as follows: (30 °C) -3.24 ± 0.4; (37 °C) -1.85 ± 0.26.
For the sequence ACAGAGCAAUAUUACGGAUU, the “self-splicing fitness (ln)” value was -3.67 ± 0.18 (30 °C) and -1.84 ± 0.14 (37 °C).
As to ACAGAGCAAUAUUACGGCAG, the “self-splicing fitness (ln)” value is -2.25 ± 0.14 (30 °C) and -2.45 ± 0.22 (37 °C).
For the sequence ACAGAGCAAUAUUACGGCCG, the “self-splicing fitness (ln)” value (30 °C) is -2.2 ± 0.27 and the “self-splicing fitness (ln)” value (37 °C) is -1.33 ± 0.25.
For ACAGAGCAAUAUUACGGCGC, in that order: -1.6 ± 0.14 and -0.0642 ± 0.18.
With ACAGAGCAAUAUUACGGUGA, the “self-splicing fitness (ln)” value is, setting by setting: (30 °C) -2.32 ± 0.13; (37 °C) -2.41 ± 0.21.
In the same order, the values of ACAGAGCAAUAUUACGGUUA are -2.77 ± 0.21 and -3.05 ± 0.33.
For ACAGAGCAAUAUUACGUAUC, in that order: -4.32 ± 0.29 and -1.46 ± 0.14.
For ACAGAGCAAUAUUACGUCAC, in that order: -3.39 ± 0.26 and -2.43 ± 0.41.
Take ACAGAGCAAUAUUACGUCCA: the “self-splicing fitness (ln)” value reads like this: (30 °C) -2.34 ± 0.2; (37 °C) -2.25 ± 0.26.
In the same order, the values of ACAGAGCAAUAUUACGUGUU are -2.64 ± 0.12 and -2.51 ± 0.18.
For ACAGAGCAAUAUUACGUUCG, in that order: -2.06 ± 0.11 and -0.493 ± 0.12.
For the sequence ACAGAGCAAUAUUACGUUGC, the “self-splicing fitness (ln)” value (30 °C) was -2.78 ± 0.18.
Regarding ACAGAGCAAUAUUACGUUGU, the “self-splicing fitness (ln)” value was -3.88 ± 0.2 (30 °C) and -2.34 ± 0.18 (37 °C).
Take ACAUAGCAAUAUUACGAAAA: the “self-splicing fitness (ln)” value was -2.4 ± 0.25 (30 °C) and -3.31 ± 0.3 (37 °C).
In the same order, the values of ACAUAGCAAUAUUACGAAAC are -3.95 ± 0.26 and -2.45 ± 0.33.
In the case of ACAUAGCAAUAUUACGAAAG, the “self-splicing fitness (ln)” value (30 °C) was -3.36 ± 0.22 and the “self-splicing fitness (ln)” value (37 °C) was -2.06 ± 0.23.
Consider ACAUAGCAAUAUUACGAAAU, for which the “self-splicing fitness (ln)” value (30 °C) is -3.43 ± 0.19 and the “self-splicing fitness (ln)” value (37 °C) was -2.75 ± 0.26.
For ACAUAGCAAUAUUACGAACC, in that order: -1.16 ± 0.13 and -1.13 ± 0.2.
In the same order, the values of ACAUAGCAAUAUUACGAACU are -0.612 ± 0.1 and 0.274 ± 0.12.
In the same order, the values of ACAUAGCAAUAUUACGACAC are -1.62 ± 0.15 and -1.29 ± 0.21.
Take ACAUAGCAAUAUUACGACAU: the “self-splicing fitness (ln)” value was -0.718 ± 0.011 (30 °C) and -0.22 ± 0.032 (37 °C).
As to ACAUAGCAAUAUUACGAGCC, the “self-splicing fitness (ln)” value (30 °C) is -3.94 ± 0.36 and the “self-splicing fitness (ln)” value (37 °C) is -2.42 ± 0.28.
As to ACAUAGCAAUAUUACGCCAC, the “self-splicing fitness (ln)” value (30 °C) is -3.57 ± 0.27 and the “self-splicing fitness (ln)” value (37 °C) is -0.959 ± 0.17.
As for ACAUAGCAAUAUUACGCCGC, the “self-splicing fitness (ln)” value (37 °C) is -2.65 ± 0.4.
Same read-out and setting: as for ACAUAGCAAUAUUACGCCUC, the figure is -1.29 ± 0.24.
On to ACAUAGCAAUAUUACGGACU, for which the “self-splicing fitness (ln)” value is -0.288 ± 0.057 (30 °C) and 0.36 ± 0.074 (37 °C).
In the same order, the values of ACAUAGCAAUAUUACGGAGU are -3.73 ± 0.12 and -2.55 ± 0.13.
Regarding ACAUAGCAAUAUUACGGAUU, the “self-splicing fitness (ln)” value (30 °C) was -3.42 ± 0.13 and the “self-splicing fitness (ln)” value (37 °C) was -1.68 ± 0.12.
In the same order, the values of ACAUAGCAAUAUUACGGCAA are -0.85 ± 0.09 and -0.569 ± 0.084.
As to ACAUAGCAAUAUUACGGCAC, the “self-splicing fitness (ln)” value by setting is: (30 °C) -1.56 ± 0.11; (37 °C) -1.2 ± 0.15.
On to ACAUAGCAAUAUUACGGCCU, for which the “self-splicing fitness (ln)” value is, setting by setting: (30 °C) -0.828 ± 0.074; (37 °C) 0.129 ± 0.1.
For ACAUAGCAAUAUUACGGCGU, the “self-splicing fitness (ln)” value was -0.355 ± 0.07 (30 °C) and 0.246 ± 0.081 (37 °C).
On to ACAUAGCAAUAUUACGGUAU, for which the “self-splicing fitness (ln)” value by setting is: (30 °C) -3.6 ± 0.11; (37 °C) -1.77 ± 0.11.
Turning to ACAUAGCAAUAUUACGGUGU, the “self-splicing fitness (ln)” value is -3.8 ± 0.21 (30 °C) and -3.54 ± 0.3 (37 °C).
Consider ACAUAGCAAUAUUACGUAAC, for which the “self-splicing fitness (ln)” value by setting is: (30 °C) -3.65 ± 0.23; (37 °C) -3.2 ± 0.35.
For ACAUAGCAAUAUUACGUAAU, the “self-splicing fitness (ln)” value reads like this: (30 °C) -2.87 ± 0.11; (37 °C) -1.93 ± 0.14.
Consider ACAUAGCAAUAUUACGUACG, for which the “self-splicing fitness (ln)” value by setting is: (30 °C) -2.39 ± 0.12; (37 °C) -1.87 ± 0.16.
With ACAUAGCAAUAUUACGUAGA, the “self-splicing fitness (ln)” value was -3.71 ± 0.15 (30 °C) and -1.62 ± 0.12 (37 °C).
Turning to ACAUAGCAAUAUUACGUAUG, the “self-splicing fitness (ln)” value is, setting by setting: (30 °C) -2.67 ± 0.12; (37 °C) -1.73 ± 0.12.
Turning to ACAUAGCAAUAUUACGUCUA, the “self-splicing fitness (ln)” value was -2.05 ± 0.096 (30 °C) and -1.1 ± 0.083 (37 °C).
In the same order, the values of ACAUAGCAAUAUUACGUUCU are -1.19 ± 0.11 and -0.553 ± 0.12.
Regarding ACCAAGCAAUAUUACGAAAA, the “self-splicing fitness (ln)” value (30 °C) was -3.44 ± 0.2 and the “self-splicing fitness (ln)” value (37 °C) is -2.91 ± 0.23.
As to ACCAAGCAAUAUUACGAACC, the “self-splicing fitness (ln)” value (30 °C) is -1.62 ± 0.1 and the “self-splicing fitness (ln)” value (37 °C) is -0.978 ± 0.12.
For ACCAAGCAAUAUUACGACCG, in that order: -1.17 ± 0.096 and -0.119 ± 0.12.
In the same order, the values of ACCAAGCAAUAUUACGACGC are -0.493 ± 0.074 and 0.0307 ± 0.098.
Take ACCAAGCAAUAUUACGACUU: the “self-splicing fitness (ln)” value is, setting by setting: (30 °C) -3.83 ± 0.19; (37 °C) -1.85 ± 0.12.
Regarding ACCAAGCAAUAUUACGAUAC, the “self-splicing fitness (ln)” value is -2.83 ± 0.32 (30 °C) and -1.99 ± 0.3 (37 °C).
For ACCAAGCAAUAUUACGAUCG, in that order: -1.43 ± 0.067 and -0.395 ± 0.093.
For ACCAAGCAAUAUUACGCCAU, in that order: -0.983 ± 0.12 and -1.56 ± 0.16.
For ACCAAGCAAUAUUACGCCCC, in that order: -1.37 ± 0.35 and 0.27 ± 0.24.
As to ACCAAGCAAUAUUACGCCGC, the “self-splicing fitness (ln)” value (30 °C) is -3.04 ± 0.24 and the “self-splicing fitness (ln)” value (37 °C) is -0.837 ± 0.18.
For ACCAAGCAAUAUUACGCCUA, in that order: -1.04 ± 0.11 and -0.201 ± 0.11.
For ACCAAGCAAUAUUACGGACG, in that order: -1.09 ± 0.069 and -0.0232 ± 0.083.
In the case of ACCAAGCAAUAUUACGGAGC, the “self-splicing fitness (ln)” value (30 °C) is -3.33 ± 0.23 and the “self-splicing fitness (ln)” value (37 °C) was -3.2 ± 0.33.
As for ACCAAGCAAUAUUACGGCAC, the “self-splicing fitness (ln)” value reads like this: (30 °C) -0.797 ± 0.091; (37 °C) -0.913 ± 0.11.
Consider ACCAAGCAAUAUUACGGCGU, for which the “self-splicing fitness (ln)” value by setting is: (30 °C) -1 ± 0.05; (37 °C) 0.0505 ± 0.064.
For ACCAAGCAAUAUUACGGGCU, in that order: -1.12 ± 0.058 and -1.16 ± 0.083.
For the sequence ACCAAGCAAUAUUACGGGGC, the “self-splicing fitness (ln)” value (30 °C) was -3.74 ± 0.18 and the “self-splicing fitness (ln)” value (37 °C) was -2.1 ± 0.14.
Take ACCAAGCAAUAUUACGUACC: the “self-splicing fitness (ln)” value (30 °C) was -1.57 ± 0.17 and the “self-splicing fitness (ln)” value (37 °C) was -1.32 ± 0.17.
As for ACCAAGCAAUAUUACGUAGA, the “self-splicing fitness (ln)” value was -2.66 ± 0.14 (30 °C) and -2.04 ± 0.16 (37 °C).
In the case of ACCAAGCAAUAUUACGUCAG, the “self-splicing fitness (ln)” value is, setting by setting: (30 °C) -3.58 ± 0.15; (37 °C) -1.56 ± 0.1.
For ACCAAGCAAUAUUACGUCUU, in that order: -4.21 ± 0.14 and -2.59 ± 0.12.
For ACCAAGCAAUAUUACGUGUG, in that order: -2.06 ± 0.048 and -1.1 ± 0.064.
Take ACCAAGCAAUAUUACGUUCU: the “self-splicing fitness (ln)” value reads like this: (30 °C) -1.56 ± 0.06; (37 °C) -0.915 ± 0.076.
On to ACCAAGCAAUAUUACGUUUU, for which the “self-splicing fitness (ln)” value (30 °C) is -3.36 ± 0.1 and the “self-splicing fitness (ln)” value (37 °C) was -2.29 ± 0.096.
For the sequence ACCCAGCAAUAUUACGAAUC, the “self-splicing fitness (ln)” value by setting is: (30 °C) -2.13 ± 0.12; (37 °C) -1.45 ± 0.16.
In the same order, the values of ACCCAGCAAUAUUACGAAUG are -3.41 ± 0.13 and -1.2 ± 0.13.
In the same order, the values of ACCCAGCAAUAUUACGAGUC are -4.16 ± 0.15 and -2.3 ± 0.15.
In the same order, the values of ACCCAGCAAUAUUACGAUAA are -2.15 ± 0.091 and -0.0251 ± 0.098.
